Measured values taken from the RNAGym collection of RNA variant scans (doi:10.7554/elife.80360).

B1: Hairpin Ribozyme (parent)
chain: GUCCUCUUUCACGUGCGCGUGAAAGAGAGAAGUGAACCAGAGAAACACACGUUGUGGUAUAUUACCUGGUA

Variants of: B1
Experiment: self-cleavage, relative activity (ratio to wild type); higher = more cleavage; co-transcriptional

Row | Variant | self-cleavage
1 | A30C A59C | 0.0289
2 | A30C A59G | 0.0647
3 | A30C A59U | 0.169
4 | A30C A61G | 0.12
5 | A30C A61U | 0.097
6 | A30C A64C | 0.127
7 | A30C A64G | 0.0788
8 | A30C A64U | 0.211
9 | A30C A71U | 0.104
10 | A30C C37G | 0.277
11 | A30C C37U | 0.0704
12 | A30C C38A | 0.183
13 | A30C C38G | 0.0718
14 | A30C C38U | 0.209
15 | A30C C48G | 0.126
16 | A30C C50A | 0.0998
17 | A30C C65A | 0.0386
18 | A30C C65U | 0.12
19 | A30C C66A | 0.0863
20 | A30C G32C | 0.12
21 | A30C G32U | 0.188
22 | A30C G34C | 0.79
23 | A30C G40A | 0.116
24 | A30C G40C | 0.0198

Row | Variant | self-cleavage
25 | A30C G40U | 0.0963
26 | A30C G42A | 0.0752
27 | A30C G42C | 0.094
28 | A30C G42U | 0.111
29 | A30C G51A | 0.26
30 | A30C G51C | 0.0477
31 | A30C G51U | 0.178
32 | A30C G56A | 0.194
33 | A30C G56C | 0.0453
34 | A30C G68A | 0.0646
35 | A30C U53A | 0.0771
36 | A30C U55G | 0.0965
37 | A30C U60C | 0.279
38 | A30C U62A | 0
39 | A30C U63A | 0.267
40 | A30C U63G | 0
41 | A30C U67A | 0.0972
42 | A30C U67C | 0.0679
43 | A30C U67G | 0.109
44 | A30C U70A | 0.159
45 | A30C U70C | 0.127
46 | A30G A35C | 0.141
47 | A30G A35G | 0.125
48 | A30G A35U | 0.0439

Row | Variant | self-cleavage
49 | A30G A36C | 0
50 | A30G A36G | 0.0448
51 | A30G A39C | 0.106
52 | A30G A39G | 0.127
53 | A30G A41C | 0.201
54 | A30G A43G | 0.0977
55 | A30G A44U | 0.227
56 | A30G A45C | 0.267
57 | A30G A47U | 0.131
58 | A30G A59C | 0.0815
59 | A30G A59G | 0.311
60 | A30G A61U | 0.153
61 | A30G A71C | 0.217
62 | A30G A71U | 0.225
63 | A30G C37G | 0.0733
64 | A30G C38A | 0.0519
65 | A30G C38G | 0.149
66 | A30G C46G | 0.185
67 | A30G C48A | 0.0555
68 | A30G C48G | 0.0877
69 | A30G C48U | 0.19
70 | A30G C66U | 0.1
71 | A30G G32A | 0.137
72 | A30G G32C | 0.106

Row | Variant | self-cleavage
73 | A30G G32U | 0.124
74 | A30G G34A | 0.164
75 | A30G G34C | 0.79
76 | A30G G40C | 0.131
77 | A30G G42U | 0.0793
78 | A30G G51A | 0.254
79 | A30G G54U | 0.123
80 | A30G G56C | 0.0815
81 | A30G G57C | 0.0397
82 | A30G G68A | 0.0362
83 | A30G G68C | 0.132
84 | A30G G69A | 0.12
85 | A30G G69C | 0.0841
86 | A30G U33A | 0.0512
87 | A30G U33G | 0.0952
88 | A30G U52G | 0.186
89 | A30G U53A | 0.0621
90 | A30G U53C | 0.288
91 | A30G U55C | 0.0826
92 | A30G U62A | 0.0629
93 | A30G U67A | 0.215
94 | A30U A31U | 0.149
95 | A30U A35G | 0.217
96 | A30U A41U | 0.232

Row | Variant | self-cleavage
97 | A30U A43C | 0.117
98 | A30U A43U | 0.0952
99 | A30U A44C | 0.0664
100 | A30U A44G | 0.064
101 | A30U A45C | 0.0664
102 | A30U A47U | 0.0724
103 | A30U A49G | 0.2
104 | A30U A49U | 0.274
105 | A30U A61G | 0.0939
106 | A30U A71G | 0.286
107 | A30U C37U | 0.206
108 | A30U C38A | 0.0692
109 | A30U C38G | 0.108
110 | A30U C38U | 0.232
111 | A30U C46U | 0.0965
112 | A30U C48U | 0.197
113 | A30U C66A | 0.096
114 | A30U C66G | 0.165
115 | A30U G32A | 0.183
116 | A30U G32U | 0.0889
117 | A30U G34C | 0.42
118 | A30U G34U | 0.805
119 | A30U G40A | 0.0894
120 | A30U G42C | 0.114

Row | Variant | self-cleavage
121 | A30U G42U | 0.119
122 | A30U G51C | 0.164
123 | A30U G51U | 0.193
124 | A30U G57A | 0.0986
125 | A30U G57U | 0.175
126 | A30U G69C | 0.0465
127 | A30U U33A | 0.0677
128 | A30U U52C | 0.135
129 | A30U U52G | 0.0874
130 | A30U U53A | 0.138
131 | A30U U53G | 0.277
132 | A30U U55A | 0.0256
133 | A30U U55G | 0.106
134 | A30U U62A | 0.177
135 | A30U U62C | 0.144
136 | A30U U62G | 0.108
137 | A30U U63G | 0.0835
138 | A30U U70G | 0.117
139 | A31C A35C | 0.069
140 | A31C A35U | 0.181
141 | A31C A36U | 0.0851
142 | A31C A41C | 0.0332
143 | A31C A43U | 0.0953
144 | A31C A44G | 0.174

Row | Variant | self-cleavage
145 | A31C A44U | 0.109
146 | A31C A45C | 0.0871
147 | A31C A59C | 0.103
148 | A31C A59G | 0.132
149 | A31C A61G | 0.0877
150 | A31C A64G | 0.0732
151 | A31C A71U | 0.1
152 | A31C C37A | 0.0507
153 | A31C C37U | 0.134
154 | A31C C38A | 0.141
155 | A31C C38G | 0.196
156 | A31C C48U | 0.159
157 | A31C C50A | 0.139
158 | A31C C65A | 0.0267
159 | A31C C65U | 0.0838
160 | A31C C66A | 0.146
161 | A31C C66G | 0.102
162 | A31C G32A | 0.173
163 | A31C G32U | 0.348
164 | A31C G34C | 0.127
165 | A31C G34U | 0.0576
166 | A31C G42A | 0.164
167 | A31C G51U | 0.149
